Data on one substance can be found in article PMC2138052.

The experiment concerns the target Rabbit muscle F-actin (rabbit) (UniProt P68135). Briefly: co-sedimentation.

Substance “Recombinant human cofilin (from UniProt P23528 1-166) (natural protein)” returned a stoichiometry N (cofilin/actin) of 1.16.
